Measured values as given in patent publication US20190127480A1 (Regeneron, published 2019).

Assays:
[1] = target: T1, human CD3 expressed on cells (Jurkat cells; human T-cells of PBMC) (human, UniProt P09693 23-182; P20963 22-164); assay: FACS titration on Jurkat cells (CD3+ human T-cell line)
T1 construct: whole, on cells; Native CD3 on the cell surface; also called hPBMC
Experimental: (§1) FACS data was acquired using the following protocol: Cells at 2×10⁵ per well were incubated with serially diluted antibodies for 30 min on ice. Post incubation, cells were washed and secondary antibody was added and incubated for an additional 30 minutes. After incubation, cells were washed, re-suspended in cold PBS containing 1% BSA and analyzed by flow cytometry with viable Jurkat cells gated by side and forward scatters. The EC₅₀s for cell binding titration were determined using Prism software with values calculated using a 4-parameter non-linear regression analysis.

[2] = target: T1, human CD3 expressed on cells (Jurkat …); assay: cell-based or functional assay
[3] = target: T1, human CD3 expressed on cells (Jurkat …); assay: cell-based or functional assay; remark: listed apart in the source
[4] = target: T2, human CD3 expressed on cells (Jurkat cells, a CD3+ human T-cell line; human PBMC T cells) (human, UniProt P07766 23-207; P04234 22-171); assay: cell-based or functional assay
T2 sequence (P07766 23-207 limits assumed, chain 1 of 2): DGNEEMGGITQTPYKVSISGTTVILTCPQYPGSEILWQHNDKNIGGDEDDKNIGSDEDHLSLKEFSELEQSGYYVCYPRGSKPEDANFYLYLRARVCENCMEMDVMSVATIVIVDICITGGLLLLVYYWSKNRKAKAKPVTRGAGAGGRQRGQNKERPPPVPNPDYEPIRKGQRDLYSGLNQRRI
T2 sequence (P04234 22-171 limits assumed, chain 2 of 2): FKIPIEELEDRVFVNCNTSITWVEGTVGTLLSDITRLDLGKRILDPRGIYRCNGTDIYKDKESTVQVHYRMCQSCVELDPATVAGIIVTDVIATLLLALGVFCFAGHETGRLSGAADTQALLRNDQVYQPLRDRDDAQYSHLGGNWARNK

[5] = target: T2, human CD3 expressed on cells (Jurkat …); assay: FACS on Jurkat cells
Experimental: as §1

[6] = target: T3, Soluble heterodimeric CD3 protein (hCD3-epsilon/hCD3-delta) with either a human Fc tag (hFcΔAdp/hFc) or a … (human, UniProt P07766 23-126; P04234 22-105); assay: SPR Biacore 25C antigen-capture
T3 construct: also called hCD3ε/δ; not shown: Fc tag: human (hFcΔAdp/hFc)
T3 sequence (P07766 23-126 limits assumed, stated change not applied, chain 1 of 2): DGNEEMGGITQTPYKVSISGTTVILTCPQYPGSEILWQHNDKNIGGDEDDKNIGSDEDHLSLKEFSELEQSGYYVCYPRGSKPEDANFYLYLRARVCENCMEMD
T3 sequence (P04234 22-105 limits assumed, stated change not applied, chain 2 of 2): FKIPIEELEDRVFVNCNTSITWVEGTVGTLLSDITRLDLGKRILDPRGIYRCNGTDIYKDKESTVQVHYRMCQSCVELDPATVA
Outline: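 Rate constants fitted to a 1:1 model, giving KD as kd/ka and dissociative half-life as ln2/(60·kd) minutes. Antibodies flowed over CD3ε/δ heterodimer captured on anti-human or anti-mouse Fc surfaces, run on a Biacore T200 at 25 °C.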

T1 sequence (chain, as listed by the source, chain 1 of 4): as the sequence (P07766 23-207 limits assumed, chain 1 of 2) above
T1 sequence (chain, as listed by the source, chain 2 of 4): as the sequence (P04234 22-171 limits assumed, chain 2 of 2) above
T1 sequence (P09693 23-182, chain 3 of 4): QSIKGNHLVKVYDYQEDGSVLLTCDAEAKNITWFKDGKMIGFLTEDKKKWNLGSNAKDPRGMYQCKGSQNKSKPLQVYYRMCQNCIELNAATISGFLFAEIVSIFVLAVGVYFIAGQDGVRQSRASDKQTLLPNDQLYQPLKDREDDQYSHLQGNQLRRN
T1 sequence (P20963 22-164, chain 4 of 4): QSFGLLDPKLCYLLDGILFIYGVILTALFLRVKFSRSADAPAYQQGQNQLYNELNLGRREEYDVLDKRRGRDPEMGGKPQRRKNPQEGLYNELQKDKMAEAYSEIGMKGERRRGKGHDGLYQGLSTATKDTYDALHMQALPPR

Binder	EC50 [1] [nM]	EC50 [M] hPBMC Proliferation [2] [M]	U937 Cytotoxicity Human T-cells [3] [pM]	also measured
H1H5763P (antibody, human IgG1, V domains shown, H1H: human IgG1 Fc) VH: QVQLVESGGGVVQPGRSLRLSCAASGLTFSSYGMHWVRQAPGKGLEWVAVISYDGSNKYYTDSVKGRFTISRDNSKNTLYLQMNSLRAEDTAVYYCAKGAMVRGVPYNYYYGMDVWGQGTTVTVSS VL: DIQMTQSPSSLSASVGDRVTITCRASQGIRNDLGWYQQKPGKAPKRLIYAASSLQSGVPSRFSGSGSGTEFTLTISSLQPEDFATYYCLQHNSYPYTFGQGTKLEIK	2.76	3.11e-13	–	–
H1H5755B (antibody, human IgG1, V domains shown, H1H: human IgG1 Fc) VH: EVQLVESGGGVVQPGRSLRLSCAASGFTFSNYGMHWVRQAPGKGLEWVTVILHDGSYKYYADSVKGRFTISRDNSKNTLHLQMNSLRTEDTAVYYCAKGPMFRGVPYNHYYGMDVWGQGTTVTVSS VL: DIQMTQSPSSLSASVGDRVTITCRASQGIRNDLGWYQQKPGKAPKRLIYAASSLQSGVSSRFSGSGSGTEFTLTISSLQPEDFATYYCLQHNSYPYTFGQGTKVEIKR	1.23	4.24e-12	51.6	–
H1H5757B (antibody, human IgG1, V domains shown, H1H: human IgG1 Fc) VH: EVQLVESGGGVVQPGRSLRLSCAASGFTFSSYGMHWVRQAPGKGLEWVTVILHDGSNRYSADSVKGRFTISRDNSKNTLYLQMNILRVEDTAVYYCTKGAMVRGVPYNHYYGMDVWGQGTTVTVSS VL: DIQMTQSPSSLSASVGDRVTITCRASQGIRNDLGWYQQKPGKAPKRLIYAASILQSGVPSRFSGSGSGTEFTLTISSLQPEDFATYYCLQHNSYPYTFGQGTKLEIKR	3.38	4.86e-12	96.5	–
H1H5758B (antibody, human IgG1, V domains shown, H1H: human IgG1 Fc) VH: EVQLVESGGGVVQPGRSLRLSCAASGFTFSSYGMHWVRQAPGKGLEWVTVILHDGSNRYYADSVKGRFTISRDNSKNTLYLQMNILRAEDTAVYYCTKGAMVRGVPYNHYYGMDVWGQGTTVTVSS VL: DIVMTQSPSSLSASVGDRVTITCRASQGIRNDLGWYQQKPGKAPKRLIYAASNLQSGVPSRFSGSGSGTEFTLTISSLQPEDFATYYCLQHNSYPYTFGQGTKLEIKR	1.9	2.13e-12	88600	–
H1H5793B (antibody, human IgG1, V domains shown, H1H: human IgG1 Fc) VH: QVQLVQSGTEVKKPGASMKVSCKASGYTFTGYYIHWVRQAPGQGLEWMGWINPNSDVTKYAQKFQGRVTLTRDTSISAAYIDLSRLRSDDTAIYYCARMGDGAVFDYWGQGTLVTVSS VL: DIQLTQSPSSLSASVGDRVTITCRASQRISSYLNWYQQKPGKAPKVLISVASSLQSGVPSRFSGSGFGTDFTLTISSLQPEDSASYYCQQSYNTPLTFGGGTKLEIKR	4.62	3.28e-12	88.5	–
H1H5797B (antibody, human IgG1, V domains shown, H1H: human IgG1 Fc) VH: QVQLVQSGTEVKKPGASVKVSCKASGYTFTGYYMHWVRQAPGQGLEWMGWINPNSDVTNYAQKFQGRVTLTRDTSISTAYIDLSRLRSDDTAIYYCARMGDGAVFDYWGQGTLVTVSS VL: DIQMTQSPSSLSASVGDRVTITCRASQRISSYLNWYQQKPGKAPKVLISVASSLQSGVPSRFSGSGSGTDFTLTISSLQPEDFASYYCQQSYNTPLTFGGGTKVEIKR	39.6	1.07e-11	576	–
H1H5782P (antibody, human IgG1, V domains shown, H1H: human IgG1 Fc) VH: EVQLVESGGGLVQPGRSLRLSCAASGFTFDDYAMHWVRQAPGKGLEWVSGISWNSGSKDYADSVKGRFTISRDNTRNSLFLQMNSLRTEDTALYYCAKDKSGYGSFYYGMDVWGQGTTVTVSS VL: not shown	–	5.17e-12	5.18	binding result [1]: no binding
H1H5786B (antibody, human IgG1, V domains shown, H1H: human IgG1 Fc) VH: QVQLVESGAEVKKPGASVKVSCKTSGYTFTGYYMHWIRQAPGQGLEWMGWINPKSGGTNYAQKFQGRVTMTRDTSISTAYMELSRLRSDDMAVYYCARMGDGAVFDFWGQGTLVTVSS VL: AIQMTQSPSSLSASVGDRVTITCRASQRISSFLNWYQQKPGKAPKLLIYTASNLQNGVPSRFSGSGSGTDFTLTISSLQPEDFATYYCQQSYRTPLTFGGGTKVEIKR	1.1	1.79e-12	61	–
H1H5790B (antibody, human IgG1, V domains shown, H1H: human IgG1 Fc) VH: EVQLVESGGGVVQPGRSLRLSCAASGFTFSYYGMHWVRQAPGKGLEWVAVISFDGKNKYYADSVMGRFTISRDNSKNTLYLQMNSLRAEDSAVFFCARSYDILTGYGAGYSYHYGMDVWGQGTTVTVSS VL: AIQMTQSPSSLSASVGDRVTITCRASQRISSFLNWYQQKPGKAPKLLIYTASNLQNGVPSRFSGSGSGTDFTLTISSLQPEDFATYYCQQSYRTPLTFGGGTKVEIKR	3.55	2.71e-12	87.1	–
H1H5792B (antibody, human IgG1, V domains shown, H1H: human IgG1 Fc) VH: QVQLVESGGGVVQPGRSLRLSCAASGFTFSSYGMHWVRQAPGKGLEWVSTISFDGSNKYYADSVKGRFTISRDNSKNTLYLQMNSLRPEDTAVYYCAKGGGTSGSYFYYGMDVWGQGTTVTVSS VL: AIQMTQSPSSLSASVGDRVTITCRASQRISSFLNWYQQKPGKAPKLLIYTASNLQNGVPSRFSGSGSGTDFTLTISSLQPEDFATYYCQQSYRTPLTFGGGTKLEIKR	5.87	6.47e-12	140	–
H1H5791B (antibody, human IgG1, V domains shown, H1H: human IgG1 Fc) VH: QVQLVESGAEVKKPGASVKVSCKTSGYTLSGYYMHWMRQAPGQGLEWMGWINPKSGVTNYAQKFQDRVAMTRDTSISTAYMELSRLRSDDTAVYYCARMGDGAVFDFWAQGTLVTVSS VL: DIQLTQSPSSLSASVGDRVTITCRASQRISSFLNWYQQKPGKAPKLLIYTASNLQNGVPSRFSGSGSGTDFTLTISSLQPEDFATYYCQQSYRTPLTFGGGTKLEIKR	3.77	1.75e-12	80.1	–
H2M3543N (antibody, mouse IgG2, V domains shown, H2M: mouse IgG2 Fc, human variable regions; divalent) VH: EVQLVESGGGLVQPGRSLRLSCAASGFTFDDYTMHWVRQAPGKGLEWVSDISWNSGSIGYADSVKGRFTVSRDNAKNSLYLQMNSLRGEDTALYYCAKDMSGYAHYGYYGMDVWGQGTTVTVSS VL: DIQMTQSPSSLSASVGDRVTITCRASQSIRNYLNWYQQKPGKVPKLLIYAASSLQSGVPSRFSGSGSGTDFTLTISSLQPEDFATYYCQQSYSNPPITFGQGTRLEIK	–	–	–	EC50 [M] hPBMC Proliferation [4]: 6.12e-12 M; EC50 [5]: 5.63 nM; Kd [6]: 0.653 nM; T½ [6]: 2.42 h; koff [6]: 7.96e-05 s⁻¹; kon [6]: 122000 M⁻¹ s⁻¹
H2M3563N (antibody, mouse IgG2, V domains shown, H2M: mouse IgG2 Fc, human variable regions; divalent) VH: EVHLVESGGGLVQPGRSLRLSCAASGFTFDDYTMHWVRQAPGKGLEWVSDISWNSGSIGYADSVKGRFTVSRDNAKNSLYLQMNSLRGEDTALYYCAKDMSGYGHYGKYGMDVWGQGTTVTVSS VL: DIQMTQSPSSLSASVGDRVTITCRASQSIRSYLNWYQQKPGKVPKLLIYAASSLQSGVPSRFSGSGSGTDFTLTINSLQPDDFATYYCQQTYSNPPITFGQGTRLEIK	–	–	–	EC50 [M] hPBMC Proliferation [4]: 7.74e-12 M; EC50 [5]: 1.07 nM; Kd [6]: 0.0773 nM; T½ [6]: 4.03 h; koff [6]: 4.77e-05 s⁻¹; kon [6]: 616000 M⁻¹ s⁻¹
H2M3547N (antibody, mouse IgG2, V domains shown, H2M: mouse IgG2 Fc, human variable regions; divalent) VH: EAQLVESGGGLVQPGRSLRLSCTTSGFTFDDYTMHWVRQAPGKGLEWISDISWNGGTKGYADSVKGRFTISRDNAKNSLYLQMDSLRGEDTALYYCVKDKSGYGHFYFGLDVWGQGTTVTVSS VL: DIQMTQSPSSLTASVGDRVTFTCRASQSISRHLSWYQQKPGKAPKLLIYAASSLESGVPSRFSGSGSGTDFTLTISSLHPEDFATYYCQQSYSNPPITFGQGTRLEIK	–	–	–	EC50 [M] hPBMC Proliferation [4]: 5.02e-12 M; EC50 [5]: 2.71 nM; Kd [6]: ≤ 0.0215 nM; T½ [6]: 19.2 h; koff [6]: ≤ 1e-05 s⁻¹
H1H5752P (antibody, human IgG1, V domains shown, H1H: human IgG1 Fc) VH: QVQLVESGGGVVQPGRSLRPSCAASGFSFRDYGMHWVRQAPGKGLEWMAHIWYNGKNKYYADSVKGRFTISRDNSKNTLYLQMNSLRPEDTAVYYCARDGVSARGTPFDYWGQGTLVTVSS VL: ETTLTQSPAFMSAAPGDKVSISCIASQYIDDDVNWYQQKPGETAIFIIQEASTLVPGISPRFSGSGYGTHFTLTINNIDSEDAAFYFCLQHDNFPYTFGQGTKLEIK	0.343	1.09e-12	18.5	–
H1H5753B (antibody, V domains shown) VH: QVQLVESGGGLVQPGGSLRLSCAASYFTFSSFAMNWVRQAPGQGLEWVSAISGRVSAISGSGGITYYADSVKGRFIISRDNSKNTLYLQMSGLRAEDTAVYYCAKGPYLTTVTPFDYWGQGTLVTVSS VL: DIQLTQSPSSVSASVGDRVTITCRASQGISSWLAWYQQKPGKAPKLLIYAVSSLQNGVPSRFSGSGSGTDFTLTISSLQPEDFATYYCQQANSFPFTFGPGTKLEIK	–	9.14e-11	379	–
